Data on two molecules can be found in PMC8866402, “Fortilin interacts with TGF-β1 and prevents TGF-β receptor activation” (Communications Biology, 2022).

The target in experiment [1] is T1, recombinant human Flag-tagged p53 (human, UniProt P04637 1-393).
T1 construct: p53, human; Positive control of the co-IP; also called rh-p53; source: bought: OriGene (Catalog #: TP300003)
Kind of experiment: co-IP; in vitro mixture of recombinant Flag-fortilin, TGF-β1, Flag-p53 and His6-NQO2 in Buffer A (10 mM Tris pH 7.4, 100 mM NaCl, 0.01% NP-40); rabbit anti-fortilin mAb or rabbit IgG, 2 h room temperature; anti-rabbit IgG Dynabeads; four washes in Buffer B (0.3% NP-40); western blot. As to conditions: both partners purified.

The target of experiment [2] is T2, recombinant human latency-associated-peptide (LAP)-TGF-β1 protein (human, UniProt P01137 30-278).
T2 construct: TGF-β1 precursor, human; 'latency-associated-peptide (LAP)-TGF-β1'; As far as I recall, R&D Systems 246-LP is the LAP of TGF-β1 alone (about Leu30-Arg278 of the precursor), not the latent complex; also called LAP-TGF-β1 molecule; source: bought: R&D Systems (Catalog #: 246-LP-025/CF)
Kind of experiment: BLI; BLItz; biotinylated rh-fortilin immobilised on streptavidin biosensors (30 μg/mL, PBS); various concentrations of analyte, 180 s association, 180 s dissociation in PBS. The following applies: both partners purified. (In general: BLI is a label-free optical method that tracks binding on a fibre tip over time.)

T2 sequence (P01137 30-278): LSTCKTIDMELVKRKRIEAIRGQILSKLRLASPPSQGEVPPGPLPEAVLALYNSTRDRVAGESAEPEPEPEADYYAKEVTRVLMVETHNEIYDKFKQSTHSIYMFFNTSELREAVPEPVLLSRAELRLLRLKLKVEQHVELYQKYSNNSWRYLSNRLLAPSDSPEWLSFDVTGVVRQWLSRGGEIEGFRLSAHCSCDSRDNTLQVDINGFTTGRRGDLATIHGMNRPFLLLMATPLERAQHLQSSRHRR
T1 sequence (P04637 whole entry): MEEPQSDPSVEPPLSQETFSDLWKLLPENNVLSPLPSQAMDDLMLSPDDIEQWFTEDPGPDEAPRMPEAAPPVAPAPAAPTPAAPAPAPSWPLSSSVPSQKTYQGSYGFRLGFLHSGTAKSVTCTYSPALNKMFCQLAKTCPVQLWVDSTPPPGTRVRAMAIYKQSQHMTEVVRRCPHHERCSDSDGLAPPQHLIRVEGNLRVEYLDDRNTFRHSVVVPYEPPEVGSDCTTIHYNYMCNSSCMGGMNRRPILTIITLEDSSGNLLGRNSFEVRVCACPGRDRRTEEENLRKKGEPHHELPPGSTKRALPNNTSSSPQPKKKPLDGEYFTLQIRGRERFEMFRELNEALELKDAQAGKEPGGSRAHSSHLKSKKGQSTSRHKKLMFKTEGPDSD

B1: recombinant human Flag-tagged fortilin (natural protein)
chain: MIIYRDLISHDEMFSDIYKIREIADGLCLEVEGKMVSRTEGNIDDSLIGGNASAEGPEGEGTESTVITGVDIVMNHHLQETSFTKEAYKKYIKDYMKSIKGKLEEQRPERVKPFMTGAAEQIKHILANFKNYQFFIGENMNPDGMVALLDYREDGVTPYMIFFKDGLEMEKC
notes: fortilin, human; the abstract calls fortilin a 172-amino acid protein; also called rh-fortilin; source: bought: OriGene (Catalog #: TP301664)
For B1, in experiment [1], the binding result is recorded as “binds”.

B2: biotinylated rh-fortilin (natural protein, human)
chain: B1 chain
modifications: biotin (NHS-PEG4-biotin)
notes: fortilin, human; The BLI methods say only 'rh-fortilin'; also called biotinylated fortilin; source: rh-fortilin biotinylated with NHS-PEG4-biotin and desalted
As to B2, the Kd in experiment [2] was determined as 0.93 µM.

What is called Kd is the constant that tells how readily two partners part at equilibrium.
